Laboratory results as given in US20230340055A1 (published 2023).

What was measured:
[1] = target: T1, IL-2-Rα/β/γ on the murine CTLL-2 T lymphocyte cell line (murine, UniProt P01590 22-268; P16297 27-539; P34902 23-369); experiment: cell-based or functional assay
T1 sequence (looked up) 1: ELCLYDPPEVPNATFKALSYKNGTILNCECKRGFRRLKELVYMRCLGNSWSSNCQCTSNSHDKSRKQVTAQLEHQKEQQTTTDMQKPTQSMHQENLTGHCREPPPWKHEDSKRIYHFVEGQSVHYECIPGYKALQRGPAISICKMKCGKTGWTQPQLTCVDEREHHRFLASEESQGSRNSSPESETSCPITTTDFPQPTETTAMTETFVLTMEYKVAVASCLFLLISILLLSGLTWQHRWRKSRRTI
T1 sequence (looked up) 2: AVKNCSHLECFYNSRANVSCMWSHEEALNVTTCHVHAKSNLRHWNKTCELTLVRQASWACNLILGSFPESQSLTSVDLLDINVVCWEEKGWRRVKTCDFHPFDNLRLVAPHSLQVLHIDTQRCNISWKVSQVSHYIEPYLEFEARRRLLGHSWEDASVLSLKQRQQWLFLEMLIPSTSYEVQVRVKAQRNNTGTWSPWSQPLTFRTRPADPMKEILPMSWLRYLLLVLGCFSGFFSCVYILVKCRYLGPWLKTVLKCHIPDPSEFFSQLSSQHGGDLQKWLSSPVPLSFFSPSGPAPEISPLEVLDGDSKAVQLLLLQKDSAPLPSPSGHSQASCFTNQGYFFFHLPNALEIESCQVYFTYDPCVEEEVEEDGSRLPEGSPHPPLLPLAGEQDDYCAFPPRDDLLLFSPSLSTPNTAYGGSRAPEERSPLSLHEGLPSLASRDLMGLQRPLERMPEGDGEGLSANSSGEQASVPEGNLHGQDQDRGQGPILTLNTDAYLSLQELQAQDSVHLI
T1 sequence (looked up) 3: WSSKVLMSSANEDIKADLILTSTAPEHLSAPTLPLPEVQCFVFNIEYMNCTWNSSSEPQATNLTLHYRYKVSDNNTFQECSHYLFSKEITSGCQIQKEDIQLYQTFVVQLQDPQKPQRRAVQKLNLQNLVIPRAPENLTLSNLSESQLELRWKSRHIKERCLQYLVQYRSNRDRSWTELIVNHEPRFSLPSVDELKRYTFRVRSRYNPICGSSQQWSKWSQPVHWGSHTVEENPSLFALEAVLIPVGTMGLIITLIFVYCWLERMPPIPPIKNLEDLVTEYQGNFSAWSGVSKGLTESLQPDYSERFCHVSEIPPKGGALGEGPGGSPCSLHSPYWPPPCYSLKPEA

[2] = target: T2, IL-2Rαβγ (trimeric high-affinity IL-2 receptor), human, on cells (human, UniProt P01589 22-272; P14784 27-551; P31785 23-369); experiment: cell-based or functional assay
T2 sequence (looked up) 1: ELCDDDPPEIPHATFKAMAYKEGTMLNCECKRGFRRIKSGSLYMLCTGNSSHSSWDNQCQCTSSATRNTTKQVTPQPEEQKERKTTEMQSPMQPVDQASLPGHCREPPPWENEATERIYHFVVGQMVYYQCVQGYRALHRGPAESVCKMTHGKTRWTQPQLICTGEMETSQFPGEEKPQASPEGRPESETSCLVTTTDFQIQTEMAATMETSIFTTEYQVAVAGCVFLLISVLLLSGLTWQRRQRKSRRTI
T2 sequence (looked up) 2: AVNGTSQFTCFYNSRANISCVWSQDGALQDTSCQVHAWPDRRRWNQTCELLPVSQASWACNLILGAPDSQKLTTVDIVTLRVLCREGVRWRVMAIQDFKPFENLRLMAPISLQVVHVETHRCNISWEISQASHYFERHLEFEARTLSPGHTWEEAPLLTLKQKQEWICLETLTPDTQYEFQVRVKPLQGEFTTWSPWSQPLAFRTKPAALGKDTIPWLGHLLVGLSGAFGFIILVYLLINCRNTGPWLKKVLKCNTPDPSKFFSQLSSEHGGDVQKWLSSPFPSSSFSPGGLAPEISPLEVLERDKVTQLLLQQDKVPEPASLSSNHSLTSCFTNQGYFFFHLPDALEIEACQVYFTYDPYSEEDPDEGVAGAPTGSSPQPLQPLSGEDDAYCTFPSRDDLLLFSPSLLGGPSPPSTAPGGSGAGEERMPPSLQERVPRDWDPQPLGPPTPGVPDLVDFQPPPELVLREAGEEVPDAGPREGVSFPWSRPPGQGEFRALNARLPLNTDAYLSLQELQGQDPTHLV
T2 sequence (looked up) 3: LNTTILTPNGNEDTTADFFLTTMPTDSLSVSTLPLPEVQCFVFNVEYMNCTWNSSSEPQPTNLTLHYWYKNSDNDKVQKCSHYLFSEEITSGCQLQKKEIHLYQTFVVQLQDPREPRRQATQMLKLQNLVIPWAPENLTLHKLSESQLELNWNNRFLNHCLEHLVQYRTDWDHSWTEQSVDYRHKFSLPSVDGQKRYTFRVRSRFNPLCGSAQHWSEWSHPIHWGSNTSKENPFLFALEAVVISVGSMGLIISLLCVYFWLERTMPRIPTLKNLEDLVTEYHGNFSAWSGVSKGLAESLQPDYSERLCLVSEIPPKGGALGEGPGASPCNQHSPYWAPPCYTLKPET

[3] = target: T3, Human IL-2 Receptor beta, Fc-Tag (Symansis, New Zealand) (human, UniProt P14784 27-240); experiment: SPR (Biacore T200), IL-2Rβ-Fc captured on anti-human IgG (Fc) CM5 chip, IL-2 as analyte, multi-cycle kinetics, 1:1 kinetic fit, 25 C
T3 construct: extracellular domain; Bought reagent; also called IL-2Rβ; IL-2Rβ-Fc; not shown: Fc-Tag (captured by anti-human IgG (Fc) antibody)
T3 sequence (looked up): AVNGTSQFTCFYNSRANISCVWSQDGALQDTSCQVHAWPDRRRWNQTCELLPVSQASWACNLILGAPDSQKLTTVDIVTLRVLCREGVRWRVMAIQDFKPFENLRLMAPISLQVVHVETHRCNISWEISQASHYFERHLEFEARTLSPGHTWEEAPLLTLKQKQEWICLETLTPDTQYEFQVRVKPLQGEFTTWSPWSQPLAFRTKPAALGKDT
Method: For the determination of binding kinetics to IL-2Rβ the following chip preparation was used: Human IL-2 Receptor beta, Fc-Tag (Symansis, New Zealand) was diluted in HBS-EP running buffer (GE Healthcare, 10 mM HEPES, 150 mM NaCl, 3 mM EDTA, 0.05% Surfactant P20, pH 7.4) to around 0.25 µg/mL and immobilized at a flow rate of 50 µL/min for 60 s to achieve 300 - 330 response units (RU).
(50 µL/min flow rate, 60 s contact time, 300 s dissociation time). Double referenced data (subtracted data from the reference flow cell and the buffer only samples) was analysed via a kinetic fit (1:1 binding model) to determine KD, kₐ and kd. Regeneration after each cycle was performed with 3 M MgCl₂.

ratio of Ratio protein 6 to Ratio protein 5a (EC50 CTLL-2 cells / EC50 HH cells) [1]: > 250
fold lower potency than 1d, pSTAT5, Tregs (human PBMCs) [2]: ~1900 fold
Kd [3]: 740 nM
B1: protein 6 (ligand)
chain: APTSSSTKKTQLQLEHLLLDLQMILNGINNYKNPKLTFGNSTKFYMPKKATELKHLQCLEEELKPLEEVLNLAQSKNFHLRPRDLISNINVIVLELKGSETTFMCEYADETATIVEFLNRWITFSQSIISTLT
modifications: glycosylated (same sequence with the N-glycosylation motif FGNST as protein 1f); glycan sites not analysed separately for protein 6
